The values that follow come from US20190233519A1 (published 2019).

First the molecules themselves.
B1: BCP-2 (BCP-K311) (Keytruda-9GS-A34311) (bispecific antibody)
heavy: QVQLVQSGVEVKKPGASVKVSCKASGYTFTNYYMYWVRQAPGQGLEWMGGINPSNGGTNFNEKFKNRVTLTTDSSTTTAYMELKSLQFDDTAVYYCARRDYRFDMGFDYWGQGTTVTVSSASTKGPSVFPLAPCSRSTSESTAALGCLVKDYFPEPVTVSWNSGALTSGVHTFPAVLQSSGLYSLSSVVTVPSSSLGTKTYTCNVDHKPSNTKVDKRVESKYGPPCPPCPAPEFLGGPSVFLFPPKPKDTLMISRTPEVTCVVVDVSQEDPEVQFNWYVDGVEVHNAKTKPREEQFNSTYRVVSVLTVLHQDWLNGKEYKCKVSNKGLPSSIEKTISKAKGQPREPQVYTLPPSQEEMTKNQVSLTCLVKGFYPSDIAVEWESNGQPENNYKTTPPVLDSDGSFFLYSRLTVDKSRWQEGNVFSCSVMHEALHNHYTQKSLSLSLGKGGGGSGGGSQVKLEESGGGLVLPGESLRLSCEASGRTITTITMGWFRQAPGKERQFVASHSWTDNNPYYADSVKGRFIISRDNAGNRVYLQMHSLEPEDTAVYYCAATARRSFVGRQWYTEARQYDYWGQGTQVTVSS
light: EIVLTQSPATLSLSPGERATLSCRASKGVSTSGYSYLHWYQQKPGQAPRLLIYLASYLESGVPARFSGSGSGTDFTLTISSLEPEDFAVYYCQHSRDLPLTFGGGTKVEIKRTVAAPSVFIFPPSDEQLKSGTASVVCLLNNFYPREAKVQWKVDNALQSGNSQESVTEQDSKDSTYSLSSTLTLSKADYEKHKVYACEVTHQGLSSPVTKSFNRGEC
B2: BCP-311K (A34311-9GS-Keytruda) (bispecific antibody)
heavy: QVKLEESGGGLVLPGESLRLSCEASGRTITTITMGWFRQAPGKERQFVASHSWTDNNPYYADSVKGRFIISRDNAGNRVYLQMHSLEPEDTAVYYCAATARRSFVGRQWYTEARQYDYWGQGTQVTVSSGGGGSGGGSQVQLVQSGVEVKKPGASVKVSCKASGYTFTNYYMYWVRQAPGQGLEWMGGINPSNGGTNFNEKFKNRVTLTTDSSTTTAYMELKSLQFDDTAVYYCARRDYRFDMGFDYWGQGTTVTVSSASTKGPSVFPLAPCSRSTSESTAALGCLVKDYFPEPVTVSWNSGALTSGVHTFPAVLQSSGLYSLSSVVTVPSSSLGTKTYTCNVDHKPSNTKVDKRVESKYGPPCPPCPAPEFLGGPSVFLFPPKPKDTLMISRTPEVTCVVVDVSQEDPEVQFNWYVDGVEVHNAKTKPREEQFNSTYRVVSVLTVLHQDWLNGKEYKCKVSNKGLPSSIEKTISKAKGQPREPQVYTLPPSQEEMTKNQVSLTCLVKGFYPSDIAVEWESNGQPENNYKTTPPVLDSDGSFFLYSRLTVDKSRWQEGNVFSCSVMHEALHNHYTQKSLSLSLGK
light: B1 light
B3: A36922 HCAb (Fc fusion)
heavy: QVQLVESGGGLVQAGGSLRLSCAASGRLSRTFTMGWYRQAPGKQRDLVASITTSGSTNYADSVKGRFTISRDNAKNTVILQMNSLVPEDTAVYYCRFLSASTAAWGQGTQVTIST
B4: A36566 HCAb (Fc fusion)
heavy: EVQLVESGGGLVQVGDSLRLSCAASGRSFENYAIGWFRQAPGKEREFVATISWIPRTAYSTTYYADSVKGRFTISGDNSKNTVYLQMTSLKPEDTAVYYCAAGGATGPLALDSHYGYWGQGTQVTVSS
B5: AS07189 HCAb (Fc fusion)
heavy: QVQLVESGGGSVQAGGSLRLSCAASGDSPSVNYMGWFRRAPEKQREQREEVASIYPTGGTFYTDSVKGRFTISRDNAKNTLYLQMTALKPEDTAMYYCAAGKWGTDYWGQGTQVIVSS
B6: AS07014 HCAb (Fc fusion)
heavy: QVHLVESGGGSVQAGGSLRLSCAASGYTYSRHCLGWFRQTPGKEREAVATIDSDGSTSYADSVKGRFTISSDNAKNTLYLQMNSLKPEDTAMYYCAIGPNPRYCSGAPNTRGAEHYFGYWAQGTQVTVSS
B7: AS02640 sdAb (VHH)
VHH: QVQLVESGGGVVQPGRSLRLSCAASGRTITTITMGWFRQAPGKGLEFVASHSWTDNNPYYADSVKGRFIISRDNSKNRLYLQMNSLRAEDTAVYYCAATARRSFVGRQWYTEARQYDYWGQGTLVTVSS
B8: A34311 sdAb (VHH)
VHH: QVKLEESGGGLVLPGESLRLSCEASGRTITTITMGWFRQAPGKERQFVASHSWTDNNPYYADSVKGRFIISRDNAGNRVYLQMHSLEPEDTAVYYCAATARRSFVGRQWYTEARQYDYWGQGTQVTVSS
B9: BCP-75 (AS07189TKDVH11-mutated hIgG1 hinge-Keytruda) (bispecific antibody)
heavy: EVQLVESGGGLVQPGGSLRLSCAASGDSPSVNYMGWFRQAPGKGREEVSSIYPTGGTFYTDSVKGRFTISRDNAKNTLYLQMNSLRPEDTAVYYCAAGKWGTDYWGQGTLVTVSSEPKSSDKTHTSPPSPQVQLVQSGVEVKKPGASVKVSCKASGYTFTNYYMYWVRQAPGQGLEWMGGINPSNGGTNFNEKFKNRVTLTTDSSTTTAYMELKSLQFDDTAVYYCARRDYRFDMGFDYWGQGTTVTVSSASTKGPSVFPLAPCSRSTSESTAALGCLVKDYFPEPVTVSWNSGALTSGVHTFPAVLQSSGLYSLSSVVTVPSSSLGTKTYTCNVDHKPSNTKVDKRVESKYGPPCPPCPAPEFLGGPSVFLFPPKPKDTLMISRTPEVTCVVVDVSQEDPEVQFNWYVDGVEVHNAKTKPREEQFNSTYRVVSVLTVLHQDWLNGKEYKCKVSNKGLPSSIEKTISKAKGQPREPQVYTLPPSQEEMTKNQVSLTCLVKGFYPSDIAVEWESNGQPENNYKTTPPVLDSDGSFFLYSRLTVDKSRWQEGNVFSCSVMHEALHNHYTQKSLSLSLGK
light: B1 light
B10: BCP-73 (A34311VH11-mutated hIgG1 hinge-Keytruda) (bispecific antibody)
heavy: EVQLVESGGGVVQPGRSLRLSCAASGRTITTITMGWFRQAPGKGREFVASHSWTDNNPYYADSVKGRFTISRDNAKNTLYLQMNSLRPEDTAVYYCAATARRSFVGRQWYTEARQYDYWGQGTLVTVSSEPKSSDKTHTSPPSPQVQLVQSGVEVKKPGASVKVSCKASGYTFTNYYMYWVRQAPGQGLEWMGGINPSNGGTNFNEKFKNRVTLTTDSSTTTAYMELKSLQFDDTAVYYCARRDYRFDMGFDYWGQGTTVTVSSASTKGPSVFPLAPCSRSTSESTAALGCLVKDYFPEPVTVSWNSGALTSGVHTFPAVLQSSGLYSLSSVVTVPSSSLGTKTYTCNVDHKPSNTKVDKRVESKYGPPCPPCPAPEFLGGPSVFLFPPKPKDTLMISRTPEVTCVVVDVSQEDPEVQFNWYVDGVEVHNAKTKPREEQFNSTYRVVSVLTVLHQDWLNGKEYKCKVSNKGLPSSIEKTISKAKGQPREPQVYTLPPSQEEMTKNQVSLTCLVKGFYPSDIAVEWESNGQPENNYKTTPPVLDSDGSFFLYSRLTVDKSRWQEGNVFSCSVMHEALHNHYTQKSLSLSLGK
light: B1 light
B11: BCP-74 (AS07014VH11-mutated hIgG1 hinge-Keytruda) (bispecific antibody)
heavy: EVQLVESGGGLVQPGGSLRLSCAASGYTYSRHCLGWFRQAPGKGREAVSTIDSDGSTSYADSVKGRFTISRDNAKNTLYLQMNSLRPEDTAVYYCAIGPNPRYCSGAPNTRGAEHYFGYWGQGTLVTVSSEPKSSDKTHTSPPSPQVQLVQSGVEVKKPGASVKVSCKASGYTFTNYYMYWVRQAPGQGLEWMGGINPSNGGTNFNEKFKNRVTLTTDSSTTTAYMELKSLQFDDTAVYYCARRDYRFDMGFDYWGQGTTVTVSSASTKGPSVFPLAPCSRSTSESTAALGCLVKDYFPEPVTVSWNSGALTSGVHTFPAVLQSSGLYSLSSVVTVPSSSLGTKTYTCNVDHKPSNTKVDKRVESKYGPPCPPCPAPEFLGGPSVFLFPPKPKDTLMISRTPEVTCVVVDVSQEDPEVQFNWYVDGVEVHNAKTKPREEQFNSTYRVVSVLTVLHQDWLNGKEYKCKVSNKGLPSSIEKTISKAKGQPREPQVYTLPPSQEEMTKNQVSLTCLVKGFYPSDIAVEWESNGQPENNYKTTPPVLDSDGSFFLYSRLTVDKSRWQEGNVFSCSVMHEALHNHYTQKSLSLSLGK
light: B1 light
B12: BCP-78 (A34311VH11-mutated hIgG1 hinge-Opdivo) (bispecific antibody)
heavy: EVQLVESGGGVVQPGRSLRLSCAASGRTITTITMGWFRQAPGKGREFVASHSWTDNNPYYADSVKGRFTISRDNAKNTLYLQMNSLRPEDTAVYYCAATARRSFVGRQWYTEARQYDYWGQGTLVTVSSEPKSSDKTHTSPPSPQVQLVESGGGVVQPGRSLRLDCKASGITFSNSGMHWVRQAPGKGLEWVAVIWYDGSKRYYADSVKGRFTISRDNSKNTLFLQMNSLRAEDTAVYYCATNDDYWGQGTLVTVSSASTKGPSVFPLAPCSRSTSESTAALGCLVKDYFPEPVTVSWNSGALTSGVHTFPAVLQSSGLYSLSSVVTVPSSSLGTKTYTCNVDHKPSNTKVDKRVESKYGPPCPPCPAPEFLGGPSVFLFPPKPKDTLMISRTPEVTCVVVDVSQEDPEVQFNWYVDGVEVHNAKTKPREEQFNSTYRVVSVLTVLHQDWLNGKEYKCKVSNKGLPSSIEKTISKAKGQPREPQVYTLPPSQEEMTKNQVSLTCLVKGFYPSDIAVEWESNGQPENNYKTTPPVLDSDGSFFLYSRLVDKSRWQEGNVFSCSVMHEALHNHYTQKSLSLSLGK
light: not shown

T5 sequence (P16410 37-161): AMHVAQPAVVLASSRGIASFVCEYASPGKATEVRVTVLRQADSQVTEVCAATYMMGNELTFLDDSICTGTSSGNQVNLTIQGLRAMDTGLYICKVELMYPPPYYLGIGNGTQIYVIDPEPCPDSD
T1 sequence (Q15116 25-167): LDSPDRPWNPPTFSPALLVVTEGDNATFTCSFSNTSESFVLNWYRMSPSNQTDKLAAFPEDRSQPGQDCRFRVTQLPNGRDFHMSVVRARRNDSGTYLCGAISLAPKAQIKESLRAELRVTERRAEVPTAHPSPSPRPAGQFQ

The first test concerns the target T1, PD-1-His protein (UniProt Q15116 25-167). The test can be described thus: SPR. A general note: In SPR one partner is held on a chip, and binding of the other changes the refractive index at the surface.
Turning to B1, the Kd – broadly, the concentration at which binding is half-saturated – was 7.63 nM.

As to B2, the Kd was 11.1 nM.

The target in a further test is T2, biotin-labeled hCTLA-4/Fc protein (UniProt P16410 37-161, biotin label in the FACS competition assays (sites not given)). The test can be described thus: FACS ligand competition.
T2 sequence (P16410 37-161): as the sequence (P16410 37-161) above
Consider B3, for which the IC50 (usually the concentration needed to halve the response being measured) turned out to be 14.1 nM.

Molecule B4 returned an IC50 of 6.6 nM.

B5: the IC50 turned out to be 11.9 nM.

For B6, the IC50 stood at 12.3 nM.

For the next test, the target named is CTLA-4/Fc. In words: SPR.
The molecule B7 gave a Kd of 2.95 nM.

The molecule B8 came in with a Kd of 4.96 nM.

For the next test, the target named is T3, human CTLA-4 expressed on CHO cells (UniProt P16410 37-223). The test can be described thus: FACS cell binding.
T3 sequence (P16410 37-223): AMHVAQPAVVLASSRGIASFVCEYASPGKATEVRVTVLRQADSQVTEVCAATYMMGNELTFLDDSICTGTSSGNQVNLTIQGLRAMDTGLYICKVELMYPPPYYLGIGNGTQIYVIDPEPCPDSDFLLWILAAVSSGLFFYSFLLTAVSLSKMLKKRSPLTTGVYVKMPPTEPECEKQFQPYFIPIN
For B5, the EC50 (as a rule, the midpoint of the concentration-response curve) was 6.8 nM. That is a single-digit nanomolar value.

B6 yielded an EC50 of 15.3 nM.

For the next test, the target named is T2, biotin-labeled hCTLA-4/Fc protein. In words: FACS ligand competition (B7-1 cells).
Turning to B2, the EC50 is 41.9 nM. This counts as double-digit nanomolar.

In a further test the target is T4, human PD-1 expressed on CHO cells (human, UniProt Q15116 25-288). The test can be described thus: FACS cell binding.
T4 sequence (Q15116 25-288): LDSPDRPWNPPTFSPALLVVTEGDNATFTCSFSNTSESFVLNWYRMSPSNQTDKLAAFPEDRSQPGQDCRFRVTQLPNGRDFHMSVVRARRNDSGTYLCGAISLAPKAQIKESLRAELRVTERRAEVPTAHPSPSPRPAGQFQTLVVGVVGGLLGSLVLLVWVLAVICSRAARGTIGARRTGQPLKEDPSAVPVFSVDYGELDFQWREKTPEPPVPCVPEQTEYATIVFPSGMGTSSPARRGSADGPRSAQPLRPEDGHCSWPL
Take B9: the midpoint of the response, the EC50, lay at 1.6 nM.

As to B10, it took 2.2 nM to reach a half-maximal effect (EC50).

B11 came in with an EC50 of 1.6 nM. This EC50 and that of the molecule before are within 1.5-fold of each other.

The molecule B12 came in with an EC50 of 1.7 nM.

Another test concerns the target T5, CTLA-4-His protein (UniProt P16410 37-161). The test can be described thus: SPR.
As for B1, the Kd came to 28 nM. This lies in the double-digit nanomolar range.

Regarding B9, the Kd stood at 4 nM.

Molecule B2 gave a Kd of 13 nM.

B10 came in with a Kd of 7.5 nM. Compared with the last molecule, the Kd is about 1.7-fold lower.

With B11, the Kd is 2.6 nM.

In turn, B12 had a Kd of 6.6 nM.

For the next test, the target named is hPD-1-Fc fusion protein having a biotin label (human, UniProt Q15116 25-167, biotin label (sites not given)). The test can be described thus: FACS ligand competition.
Chain of hPD-1-Fc fusion protein having a biotin label (Q15116 25-167): as the sequence (Q15116 25-167) above
The molecule B9 showed an IC50 of 1.5 nM.

With B10, the IC50 is 1.1 nM.

B11 returned an IC50 of 2.6 nM.

With B12, the IC50 stood at 4.8 nM.

Another test concerns the target T2, biotin-labeled hCTLA-4/Fc protein. The test can be described thus: FACS ligand competition (B7-1 cells). The source holds these as a separate data set.
For the molecule B3, the IC50 was 14.1 nM.

The molecule B4 registered an IC50 of 6.6 nM. Compared with the last molecule, the IC50 is about 2.1-fold lower.

For another test, the target named is T5, CTLA-4-His protein. The test can be described thus: SPR. This is another data set of the same source.
For B1, the affinity, expressed as Kd, was 28.4 nM.

As to B2, the Kd was 13 nM.

The next test addresses T1, PD-1-His protein. The test can be described thus: SPR. This is another data set of the same source.
Take B9: the affinity, expressed as Kd, was 2.2 nM.

B10 came in with a Kd of 7.5 nM. This Kd lies about 3.4-fold higher than the previous one.

Turning to B11, the Kd was 2.5 nM.

The molecule B12 registered a Kd of 8.1 nM.

The target in a further test is T2, biotin-labeled hCTLA-4/Fc protein. The test can be described thus: FACS ligand competition. This is another data set of the same source.
In turn, B9 displayed an IC50 of 11.7 nM. That is a double-digit nanomolar value.

Consider B10, for which the IC50 came to 11.5 nM.

As for B11, the IC50 amounted to 17.2 nM.

With B12, the IC50 stood at 7.1 nM.

A further test has as its target T3, human CTLA-4 expressed on CHO cells. The test can be described thus: FACS cell binding. This is another data set of the same source.
On to B9, for which the EC50 came to 3 nM.

As for B10, the response was half-maximal at 3 nM (EC50).

B11 yielded an EC50 of 3.9 nM. This EC50 and that of the molecule before are within 1.5-fold of each other.

Molecule B12 had an EC50 of 2.7 nM.

The target in a further test is T4, human PD-1 expressed on CHO cells. The test can be described thus: FACS ligand competition (hPD-L1 Fc).
Molecule B1 showed an IC50 of 16.5 nM.

B2: the IC50 was found to be 33.7 nM. Compared with the last molecule, the IC50 is about 2-fold higher.

The target of the next test is T5, CTLA-4-His protein. The test can be described thus: SPR. The source holds these as a separate data set.
In turn, B5 showed a Kd of 3 nM.

As for B6, binding was characterised by a dissociation constant (Kd) of 1.1 nM. This Kd is about 2.7-fold lower than that of the molecule before.
